Reference: patent US20240294593A1 (Genentech, published 2024)
Positions count from the first letter of the chain named. Names may count otherwise.

B1: H1_L1.84 (antibody, V domains shown)
VH: EVQLVESGGGLVQPGGSLRLSCAASGFTFSSFGMHWVRQAPGKGLEWVSYISSGSSIIYYADSVKGRFTISRDNAKNSLYLQMNSLRAEDTAVYYCARGGRLVWSPDYWGQGTLVTVSS
VL: DIVMTQSPDSLAVSLGERATINCKSSQSLLNSGNQKNYLTWYQQKPGQPPKLLIYWASTRQSGVPDRFTGSGSGTDFTLTISSLQAEDVAVYYCQNDYSYPFTFGSGTKLEIKR
notes: also called VL-E61Q; Kabat 55
B2: H1_L1.71 (antibody, V domains shown)
VH: B1 VH
VL: B1 VL with W56Q, Q61E
notes: also called VL-W56Q; Kabat 50
B3: H1_L1.82 (antibody, V domains shown)
VH: B1 VH
VL: B1 VL with T59K, Q61E
notes: also called VL-T59K; Kabat 53
B4: H1_L1.83 (antibody, V domains shown)
VH: B1 VH
VL: B1 VL with T59Y, Q61E
notes: also called VL-T59Y; Kabat 53
B5: H1_L1.74 (antibody, V domains shown)
VH: B1 VH
VL: B1 VL with W56R, Q61E
notes: also called VL-W56R; Kabat 50
B6: H1_L1.65 (antibody, V domains shown)
VH: B1 VH
VL: B1 VL with T40A, Q61E
notes: also called VL-T40A; Kabat 34
B7: H1_L1.68 (antibody, V domains shown)
VH: B1 VH
VL: B1 VL with W56Y, Q61E
notes: also called VL-W56Y; Kabat 50
B8: H1_L1.80 (antibody, V domains shown)
VH: B1 VH
VL: B1 VL with T59H, Q61E
notes: also called VL-T59H; Kabat 53
B9: H1_L1.85 (antibody, V domains shown)
VH: B1 VH
VL: B1 VL with Q61K
notes: also called VL-E61K; Kabat 55
B10: H1_L1.87 (antibody, V domains shown)
VH: B1 VH
VL: B1 VL with Q61H
notes: also called VL-E61H; Kabat 55
B11: H1_L1.77 (antibody, V domains shown)
VH: B1 VH
VL: B1 VL with T59A, Q61E
notes: also called VL-T59A; Kabat 53
B12: H1_L1.66 (antibody, V domains shown)
VH: B1 VH
VL: B1 VL with W56F, Q61E
notes: also called VL-W56F; Kabat 50
B13: H1_L1.67 (antibody, V domains shown)
VH: B1 VH
VL: B1 VL with W56L, Q61E
notes: also called VL-W56L; Kabat 50
B14: H1_L1.76 (antibody, V domains shown)
VH: B1 VH
VL: B1 VL with T59S, Q61E
notes: also called VL-T59S; Kabat 53
B15: H1_L1.72 (antibody, V domains shown)
VH: B1 VH
VL: B1 VL with W56S, Q61E
notes: also called VL-W56S; Kabat 50
B16: H1_L1.88 (antibody, V domains shown)
VH: B1 VH
VL: B1 VL with Q61A
notes: also called VL-E61A; Kabat 55
B17: H1_L1.75 (antibody, V domains shown)
VH: B1 VH
VL: B1 VL with T59V, Q61E
notes: also called VL-T59V; Kabat 53
B18: H1_L1.86 (antibody, V domains shown)
VH: B1 VH
VL: B1 VL with Q61S
notes: also called VL-E61S; Kabat 55
B19: H1_L1.79 (antibody, V domains shown)
VH: B1 VH
VL: B1 VL with T59Q, Q61E
notes: also called VL-T59Q; Kabat 53
B20: H1_L1.78 (antibody, V domains shown)
VH: B1 VH
VL: B1 VL with T59I, Q61E
notes: also called VL-T59I; Kabat 53
B21: H1_L1.89 (antibody, V domains shown)
VH: B1 VH
VL: B1 VL with Q61G
notes: also called VL-E61G; Kabat 55
B22: H1_L1.81 (antibody, V domains shown)
VH: B1 VH
VL: B1 VL with T59D, Q61E
notes: also called VL-T59D; Kabat 53
B23: H1_L1.69 (antibody, V domains shown)
VH: B1 VH
VL: B1 VL with W56I, Q61E
notes: also called VL-W56I; Kabat 50
B24: H1_L1.73 (antibody, V domains shown)
VH: B1 VH
VL: B1 VL with W56D, Q61E
notes: also called VL-W56D; Kabat 50
B25: H1_L1.70 (antibody, V domains shown)
VH: B1 VH
VL: B1 VL with W56H, Q61E
notes: also called VL-W56H; Kabat 50
B26: H1.151_L1 (antibody, V domains shown)
VH: B1 VH with W104F
VL: B1 VL with Q61E
notes: also called VH-W112F; Kabat 100
B27: H1.148_L1 (antibody, V domains shown)
VH: B1 VH with V103W
VL: B1 VL with Q61E
notes: also called VH-V111W; Kabat 99
B28: H1.163_L1 (antibody, V domains shown)
VH: B1 VH with S105G
VL: B1 VL with Q61E
notes: also called VH-S113G; Kabat 100a
B29: H1.156_L1 (antibody, V domains shown)
VH: B1 VH with W104Q
VL: B1 VL with Q61E
notes: also called VH-W112Q; Kabat 100; copies: 2 + 2
B30: H1.149_L1 (antibody, V domains shown)
VH: B1 VH with V103D
VL: B1 VL with Q61E
notes: also called VH-V111D; Kabat 99
B31: H1.161_L1 (antibody, V domains shown)
VH: B1 VH with S105A
VL: B1 VL with Q61E
notes: also called VH-S113A; Kabat 100a
B32: H1.158_L1 (antibody, V domains shown)
VH: B1 VH with W104E
VL: B1 VL with Q61E
notes: also called VH-W112E; Kabat 100; copies: 2 + 2
B33: H1.153_L1 (antibody, V domains shown)
VH: B1 VH with W104Y
VL: B1 VL with Q61E
notes: also called VH-W112Y; Kabat 100; copies: 2 + 2
B34: H1.155_L1 (antibody, V domains shown)
VH: B1 VH with W104H
VL: B1 VL with Q61E
notes: also called VH-W112H; Kabat 100; copies: 2 + 2
B35: H1.160_L1 (antibody, V domains shown)
VH: B1 VH with S105T
VL: B1 VL with Q61E
notes: also called VH-S113T; Kabat 100a
B36: H1.164_L1 (antibody, V domains shown)
VH: B1 VH with S105V
VL: B1 VL with Q61E
notes: also called VH-S113V; Kabat 100a
B37: H1.147_L1 (antibody, V domains shown)
VH: B1 VH with V103Q
VL: B1 VL with Q61E
notes: also called VH-V111Q; Kabat 99
B38: H1.150_L1 (antibody, V domains shown)
VH: B1 VH with V103K
VL: B1 VL with Q61E
notes: also called VH-V111K; Kabat 99
B39: H1.157_L1 (antibody, V domains shown)
VH: B1 VH with W104S
VL: B1 VL with Q61E
notes: also called VH-W112S; Kabat 100; copies: 2 + 2

target: T1, human PD-1-His (human, UniProt Q15116 25-167, limits assumed); assay: Octet [D00120 Figure 65H]
T1 construct: Antigen of the Octet assays; not shown: His tag
From the text: In particular, anti-human IgG-Fc (AHC) biosensors were used to capture the test articles and dipped into multiple concentrations of PD-1.

T1 sequence (Q15116 25-167 limits assumed): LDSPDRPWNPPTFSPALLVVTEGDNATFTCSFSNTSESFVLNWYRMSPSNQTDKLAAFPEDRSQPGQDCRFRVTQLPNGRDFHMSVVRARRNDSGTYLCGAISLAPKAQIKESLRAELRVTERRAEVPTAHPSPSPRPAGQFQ

Binder	Kd [nM]	koff [s⁻¹]	kon [M⁻¹ s⁻¹]
B1	46	0.00478	104000
B2	47.1	0.0043	91400
B3	52.6	0.00602	114000
B4	64.3	0.00603	93800
B5	265	0.0244	92300
B6	98	0.00949	96800
B7	178	0.0166	92900
B8	51	0.00578	113000
B9	31.8	0.00316	99400
B10	50.9	0.00552	109000
B11	50.3	0.00535	106000
B12	35.3	0.00339	96200
B13	41.6	0.00418	100000
B14	55	0.00512	93100
B15	60.3	0.00348	57700
B16	43.3	0.00411	95000
B17	45.3	0.00496	110000
B18	40.6	0.0047	116000
B19	55.5	0.00731	132000
B20	56.8	0.00581	102000
B21	43.9	0.00403	91900
B22	51.4	0.00606	118000
B23	25.9	0.00244	94400
B24	51.6	0.00455	88100
B25	30.9	0.00281	90700

target: T1, human PD-1-His; assay: Octet

Binder	Kd [nM]	koff [s⁻¹]	kon [M⁻¹ s⁻¹]	binding result
B26	309	0.087	282000	
B27	77.5	0.0112	144000	
B28	92	0.0113	123000	
B29				no binding
B30	116	0.0116	99700	
B31	47.5	0.00755	159000	
B32				no binding
B33				no binding
B34				no binding
B35	90.7	0.00764	84300	
B36	280	0.0166	59400	
B37	92.3	0.013	140000	
B38	60	0.00524	87200	
B39				no binding
